According to patent US12247058 (Bristol-Myers Squibb, dated 2025):
Non-standard residues stand in square brackets, D forms with d. Phe(4-Ac) = CC(=O)c1ccc(C[C@H](N)C(=O)O)cc1

T1: human β-klotho with a C-terminal FLAG tag, stably expressed in a clonal HEK-293 cell line (human, UniProt Q86Z14 1-1044)
T1 sequence: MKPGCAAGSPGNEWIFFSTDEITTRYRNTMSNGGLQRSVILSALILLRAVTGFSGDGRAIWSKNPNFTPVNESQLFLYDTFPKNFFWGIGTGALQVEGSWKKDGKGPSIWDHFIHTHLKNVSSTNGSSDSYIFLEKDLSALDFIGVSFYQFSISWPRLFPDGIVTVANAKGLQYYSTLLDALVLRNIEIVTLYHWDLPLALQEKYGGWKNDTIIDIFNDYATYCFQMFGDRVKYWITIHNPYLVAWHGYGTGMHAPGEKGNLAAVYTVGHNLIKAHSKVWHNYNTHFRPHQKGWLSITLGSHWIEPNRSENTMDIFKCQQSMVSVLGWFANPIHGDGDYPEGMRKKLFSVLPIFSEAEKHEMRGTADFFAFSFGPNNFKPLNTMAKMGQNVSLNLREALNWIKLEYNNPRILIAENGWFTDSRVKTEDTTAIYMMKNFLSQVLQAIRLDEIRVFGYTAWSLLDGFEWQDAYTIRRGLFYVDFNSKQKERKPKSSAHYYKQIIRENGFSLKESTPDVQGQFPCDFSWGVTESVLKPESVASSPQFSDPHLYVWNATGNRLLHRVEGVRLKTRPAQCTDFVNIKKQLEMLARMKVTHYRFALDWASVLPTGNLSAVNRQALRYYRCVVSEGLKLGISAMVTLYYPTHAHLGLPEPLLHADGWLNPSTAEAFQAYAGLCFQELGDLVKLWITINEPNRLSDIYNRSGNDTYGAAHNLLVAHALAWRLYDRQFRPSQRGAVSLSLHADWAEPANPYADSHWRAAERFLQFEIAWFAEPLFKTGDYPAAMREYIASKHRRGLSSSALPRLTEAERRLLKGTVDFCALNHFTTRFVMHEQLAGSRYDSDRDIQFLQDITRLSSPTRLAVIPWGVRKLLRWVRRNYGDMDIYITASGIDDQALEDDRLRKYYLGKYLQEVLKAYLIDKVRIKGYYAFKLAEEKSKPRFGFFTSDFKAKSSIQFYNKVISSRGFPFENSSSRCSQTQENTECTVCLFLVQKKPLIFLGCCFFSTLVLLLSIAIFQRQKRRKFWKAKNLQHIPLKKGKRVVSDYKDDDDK

T2: human β-klotho, stably co-expressed with the Elk1-luciferase trans-reporter in HEK293 cells (HEK Luc Clone2) (human, UniProt Q86Z14 1-1044)
T2 sequence: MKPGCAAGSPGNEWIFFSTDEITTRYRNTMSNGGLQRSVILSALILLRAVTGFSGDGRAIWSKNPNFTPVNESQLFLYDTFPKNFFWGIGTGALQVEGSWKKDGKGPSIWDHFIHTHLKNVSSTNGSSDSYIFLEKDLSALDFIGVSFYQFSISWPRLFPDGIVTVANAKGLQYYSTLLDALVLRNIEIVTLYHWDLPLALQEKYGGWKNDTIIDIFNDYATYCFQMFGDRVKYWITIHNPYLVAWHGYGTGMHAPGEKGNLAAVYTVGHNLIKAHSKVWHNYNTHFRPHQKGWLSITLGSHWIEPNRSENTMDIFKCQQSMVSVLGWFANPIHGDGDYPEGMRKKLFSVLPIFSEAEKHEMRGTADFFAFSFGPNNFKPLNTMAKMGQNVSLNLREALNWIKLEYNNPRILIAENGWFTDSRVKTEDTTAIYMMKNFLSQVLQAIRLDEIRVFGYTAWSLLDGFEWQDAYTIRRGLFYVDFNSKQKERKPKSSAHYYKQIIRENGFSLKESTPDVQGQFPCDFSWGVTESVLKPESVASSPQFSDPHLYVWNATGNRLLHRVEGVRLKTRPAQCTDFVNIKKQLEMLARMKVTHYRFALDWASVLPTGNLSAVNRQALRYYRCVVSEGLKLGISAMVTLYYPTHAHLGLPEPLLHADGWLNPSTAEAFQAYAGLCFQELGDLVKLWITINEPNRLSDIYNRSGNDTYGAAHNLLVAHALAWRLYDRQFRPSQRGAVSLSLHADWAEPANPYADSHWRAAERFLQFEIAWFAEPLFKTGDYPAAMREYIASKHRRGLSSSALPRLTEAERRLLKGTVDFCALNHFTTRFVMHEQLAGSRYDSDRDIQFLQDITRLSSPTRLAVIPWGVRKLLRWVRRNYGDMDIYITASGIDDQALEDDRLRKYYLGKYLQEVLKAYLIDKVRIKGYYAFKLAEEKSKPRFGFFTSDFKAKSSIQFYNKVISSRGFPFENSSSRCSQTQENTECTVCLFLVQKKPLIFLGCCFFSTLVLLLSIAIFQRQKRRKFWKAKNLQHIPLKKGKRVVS


Columns and labels:
Assay in all cases: cell-based or functional assay
[1] = target: T1, human β-klotho with a C-terminal FLAG …
[2] = target: T1, human β-klotho with a C-terminal FLAG …; remark: listed apart in the source
[3] = target: T2, human β-klotho, stably co-expressed …
[4] = target: T2, human β-klotho, stably co-expressed …; remark: listed apart in the source

Row | Binder | EC50 in the pERK assay [1] [nM] | further results
1 | Pegylated Compound 5 (ligand) MHPIPDSSPLLQFGGQVRQRYLYTDDAQQTEAHLEIREDGTVGGAADQSPESLLQLKALKPGVIQILGVKTSRFLCQRPDGALYGSLHFDPEACSFRELLLEDGYNVY[Phe(4-Ac)](PEG 30 kDa)SEAHGLPLHLPGDKSRDPAPRGPARFLPLPGLPPAPPEPPGILAPQPPDVGSSDPLSMVEPSQGRSPSYAS | 24 | 
2 | Compound 12 (ligand) MHPIPDSSPLLQFGGQVRQRYLYTDDAQQTEAHLEIREDGTVGGAADQSPESLLQLKALKPGVIQILGVKTSRFLCQRPDGALYGSLHFDPEACSFRELLLEDGYNVYQSEAHGLPLHLPHHSGRDPAPRGPARFLPLPGLPPAPPEPPGILAPQPPDVGSSDPLSMVEPSQGRSPSYAS |  | pERK EC50 [2]: 31.9 nM
3 | Pegylated Compound 12 (ligand) MHPIPDSSPLLQFGGQVRQRYLYTDDAQQTEAHLEIREDGTVGGAADQSPESLLQLKALKPGVIQILGVKTSRFLCQRPDGALYGSLHFDPEACSFRELLLEDGYNVY[Phe(4-Ac)](PEG about 30 kDa)SEAHGLPLHLPHHSGRDPAPRGPARFLPLPGLPPAPPEPPGILAPQPPDVGSSDPLSMVEPSQGRSPSYAS | 39 | 
4 | Pegylated Compound 21 (ligand) MHPIPDSSPLLQFGGQVRQRYLYTDDAQQTEAHLEIREDGTVGGAADQSPESLLQLKALKPGVIQILGVKTSRFLCQRPDGALYGSLHFDPEACSFRELLLEDGYNVY[Phe(4-Ac)](PEG about 30 kDa)SEAHGLPLHLGSGRDPAPRGPARFLPLPGLPPAPPEPPGILAPQPPDVGSSDPLSMVEPSQGRSPSYAS | 30 | 
5 | Compound 181 [Fc(hIgG1f_1.1_186)-L7-FGF21 (Cmp. 2)] (Fc fusion) EPKSSDKTHTCPPCPAPEAEGAPSVFLFPPKPKDTLMISRTPEVTCVVVDVSHEDPEVKFNWYVDGVEVHNAKTKPREEQYNSTYRVVSVLTVLHQDWLNGKEYKCKVSNKALPSSIEKTISKAKGQPREPQVYTLPPSREEMTKNQVSLTCLVKGFYPSDIAVEWESNGQPENNYKTTPPVLDSDGSFFLYSKLTVDKSRWQQGNVFSCSVMHEALHNHYTQKSLSLSPGKGGGGGSGGGSGGGGSHPIPDSSPLLQFGGQVRQRYLYTDDAQQTEAHLEIREDGTVGGAADQSPESLLQLKALKPGVIQILGVKTSRFLCQRPDGALYGSLHFDPEACSFRELLLEDGYNVYQSEAHGLPLHLGSGRGPARFLPLPGLPPAPPEPPGILAPQPPDVGSSDPLSMVEPSQGRSPSYAS |  | Geometric Mean EC50, Elk1-luciferase assay [3]: 0.8 nM
6 | Pegylated Compound 11 (ligand) MHPIPDSSPLLQFGGQVRQRYLYTDDAQQTEAHLEIREDGTVGGAADQSPESLLQLKALKPGVIQILGVKTSRFLCQRPDGALYGSLHFDPEACSFRELLLEDGYNVY[Phe(4-Ac)](PEG about 30 kDa)SEAHGLPLHLGSGHRDPAPRGPARFLPLPGLPPAPPEPPGILAPQPPDVGSSDPLSMVEPSQGRSPSYAS | 30 | 
7 | Compound 32 (Non-Pegylated Control) (ligand) MHHHHHHPIPDSSPLLQFGGQVRQRYLYTDDAQQTEAHLEIREDGTVGGAADQSPESLLQLKALKPGVIQILGVKTSRFLCQRPDGALYGSLHFDPEACSFRELLLEDGYNVYQSEAHGLPLHLPGNKSPHRDPAPRGPARFLPLPGLPPALPEPPGILAPQPPDVGSSDPLSMVGPSQGRSPSYAS | 8 | 
8 | Compound 11 (ligand) MHPIPDSSPLLQFGGQVRQRYLYTDDAQQTEAHLEIREDGTVGGAADQSPESLLQLKALKPGVIQILGVKTSRFLCQRPDGALYGSLHFDPEACSFRELLLEDGYNVYQSEAHGLPLHLGSGHRDPAPRGPARFLPLPGLPPAPPEPPGILAPQPPDVGSSDPLSMVEPSQGRSPSYAS |  | pERK EC50 [2]: 28.2 nM
9 | Pegylated Compound 20 (ligand) MHPIPDSSPLLQFGGQVRQRYLYTDDAQQTEAHLEIREDGTVGGAADQSPESLLQLKALKPGVIQILGVKTSRFLCQRPDGALYGSLHFDPEACSFRELLLEDGYNVY[Phe(4-Ac)](PEG about 30 kDa)SEAHGLPLHLGGHRDPAPRGPARFLPLPGLPPAPPEPPGILAPQPPDVGSSDPLSMVEPSQGRSPSYAS | 42 | 

Now from value to binder, other results behind:

Row | EC50 in the pERK assay [1] [nM] | Binder | further results
10 | 28 | Pegylated Compound 10 (ligand) MHPIPDSSPLLQFGGQVRQRYLYTDDAQQTEAHLEIREDGTVGGAADQSPESLLQLKALKPGVIQILGVKTSRFLCQRPDGALYGSLHFDPEACSFRELLLEDGYNVY[Phe(4-Ac)](PEG about 30 kDa)SEAHGLPLHLGSGGPARFLPLPGLPPAPPEPPGILAPQPPDVGSSDPLSMVEPSQGRSPSYAS | 
11 | 36 | Pegylated Compound 22 (ligand) MHPIPDSSPLLQFGGQVRQRYLYTDDAQQTEAHLEIREDGTVGGAADQSPESLLQLKALKPGVIQILGVKTSRFLCQRPDGALYGSLHFDPEACSFRELLLEDGYNVY[Phe(4-Ac)](PEG 30 kDa)SEAHGLPLHLSGGPAPRGPARFLPLPGLPPAPPEPPGILAPQPPDVGSSDPLSMVEPSQGRSPSYAS | 
12 | 30 | Pegylated Compound 19 (ligand) MHPIPDSSPLLQFGGQVRQRYLYTDDAQQTEAHLEIREDGTVGGAADQSPESLLQLKALKPGVIQILGVKTSRFLCQRPDGALYGSLHFDPEACSFRELLLEDGYNVY[Phe(4-Ac)](PEG about 30 kDa)SEAHGLPLHLGSGPHRDPAPRGPARFLPLPGLPPAPPEPPGILAPQPPDVGSSDPLSMVEPSQGRSPSYAS | 
13 | 20 | Pegylated Compound 6 (ligand) MHPIPDSSPLLQFGGQVRQRYLYTDDAQQTEAHLEIREDGTVGGAADQSPESLLQLKALKPGVIQILGVKTSRFLCQRPDGALYGSLHFDPEACSFRELLLEDGYNVY[Phe(4-Ac)](PEG 30 kDa)SEAHGLPLHLPGHKSRDPAPRGPARFLPLPGLPPAPPEPPGILAPQPPDVGSSDPLSMVEPSQGRSPSYAS | 
14 | 14 | Pegylated Compound 1 (ligand) MHPIPDSSPLLQFGGQVRQRYLYTDDAQQTEAHLEIREDGTVGGAADQSPESLLQLKALKPGVIQILGVKTSRFLCQRPDGALYGSLHFDPEACSFRELLLEDGYNVY[Phe(4-Ac)](PEG 30 kDa)SEAHGLPLHLPGNKSPHRDPAPRGPARFLPLPGLPPAPPEPPGILAPQPPDVGSSDPLSMVGPSQGRSPSYAS | pERK EC50 [2]: 6.7 nM; EC50 (geometric mean), 5 hour Elk1-luciferase assay [4]: 3.6 nM; pEC50, 5 hour Elk1-luciferase assay [4]: 8.44 log M
